Results from the DeepSol protein solubility set.

Test: soluble on expression in E. coli; label from the status in PepcDB or PDB records

Sequence	soluble on expression in E. coli
MGSDKIHHHHHHMITDPQIKACIHQHHLFSALGEEELCRLLGQAAKITLAAHENLFYQGDLAKRFYLVIQGHLQLYRTSLQGQDKVIEVVREGRTFAEALMFSRQASYPVSAQAVSHCTLVSFDSEGYLAMLRGNPDACIAIMAEMSVRLRKDINEVELLSVQNAQSRLLLFLLRNMQKIGDNQGRVELDIPKRVLASRLSIQPETFSRLMKKMVTEGIIGESRGAIDIKDLAKLYTSANMPLANQAIQTSEPLIRSGKAPCQQIAIEMV	not soluble
MGSDKIHHHHHHMIVLLREINRYCKEKATGKRIYAVPKLWIPGFFKKFDEKSGRCFVDPYELGAEITDWILNQSREWDYSQPLSFLKGEKTPDWIKRSVVYGSLPRTTAAYNHKGSGYYEENDVLGFREAGTFFKMMLLLPFVKSLGADAIYLLPVSRMSDLFKKGDAPSPYSVKNPMELDERYHDPLLEPFKVDEEFKAFVEACHILGIRVILDFIPRTAARDSDLIREHPDWFYWIKVEELADYTPPRAEELPFKVPDEDELEIIYNKENVKRHLKKFTLPPNLIDPQKWEKIKREEGNILELIVKEFGIITPPGFSDLINDPQPTWDDVTFLRLYLDHPEASKRFLDPNQPPYVLYDVIKASKFPGKEPNRELWEYLAGVIPHYQKKYGIDGARLDMGHALPKELLDLIIKNVKEYDPAFVMIAEELDMEKDKASKEAGYDVILGSSWYFAGRVEEIGKLPDIAEELVLPFLASVETPDTPRIATRKYASKMKKLAPFVTYFLPNSIPYVNTGQEIGEKQPMNLGLDTDPNLRKVLSPTDEFFGKLAFFDHYVLHWDSPDRGVLNFIKKLIKVRQQFLDFVLNGKFENLTTKDLVMYSYEKNGQKIVIAANVGKEPKEITGGRVWNGKWSDEEKVVLKPLEFALVVQE	not soluble
MGSDKIHHHHHHMIVYNSGAALEKARVRVGLVGTGYAAKFRAEALLHDERSQLIAVVGHTAEKTEAFVREYQIKALSSWQELVEREDVDLVVICTVNRDHGAIARAALTNGKHVIIEYPLSLDVVEADELIALAKAQKKLLHVEHLELLGGLHQALKQNLAKIGEVFYARYSTINPQNPAPRKWTYNHELFGFPLIGALSRLHRLIDLFGTVFTVNCHQRYWEIEPEYYQTCFCTSELCFNSGLLAQVVYGKGESIWQSERKFEVHGEKGGLVFDGDTGIFIQPEETTPIEVGPRRGLFAKDTAMVLDHLFDGTPLYVTPEQSLYTLKVADAAQRAAQTGFTMFM	not soluble
MGSDKIHHHHHHMIYYGTMFDHKVRFSIVRMREVVEEARNRHALSYLATVVLGRALIGAALVTPWLAEKERWTLDIEGNGPIRRVVAQSTSEFTVRGYVANPKVELPLNEKGKFDVAGAIGQGVLRVVRDLGLKTPFVSQVPLVSGEIAEDLAYYFAVSEQIPSAFSIGVLVDSDGVKIAGGFAVQIIDRTLEQEKVEMIEKNIKNLPSISKLFQEAEPLDVLERIFGEKVGFVETAEIKYKCDCNREKAKNALLVLDKKELEDMRKEGKGEVVCKWCNTRYVFSEEELEELLKFKVDDSGS	soluble
MGSDKIHHHHHHMKAISANLQRLLAESGMKQSHLATILNIPTSSLNEYVKGKSLPKIGNIQKIADYFGLQKSDIDPRFASKKDSSTLDKINHIAKQLEMKRQIKVLDFCYQQSKEQDETASLSASDETTEDKVADKSNHTQYQKVVDSFIAKELNDQTIIHWDNVIKAKDLYQTFGRQYENIQIYGEVSAGTGIWVGHEKQETIKYPIPIPEHDIALIVNGNSMEPLFYNGDVIFVKKTKAIHHGQIIVVIVNNEAYVKKLYRKNKEIRLISLNPDYDDIILKEDDTIEVIGTVIT	not soluble
MGSDKIHHHHHHMKAVVIVKRAGQERPDLEYQTVPDPKPEPNELLVSVRAAGINRIDLHRSTAHGAPAAGKPLVAGLEMSGEVVAVGENVHDFRTGDKVYGMTTGSYAELATIDHRYALPVPPAFSFDQATAVATVYPTAHNALVTNGQFAAGKTVLIQGVSSAVGIATLQIAKAMGAKCVVGTGRPNANIGKLAEAGLDRFLLNGTDNIPAEIMAMTDGRGVDTIVDMVGGPTIADNLESVALAGRIVSVGWVGGTKGEIDLDTLARKRVTLVGVSFRTRTVEEKTELFAQFRRDVYPLFVNGTLVPYIAATYHLSEAAAAQDAMAEDKHFGKILLHP	not soluble
MGSDKIHHHHHHMKDVARDIYLSRDKIDEIKRKRFRSTLKYVYDNSPFYRRLFKESGVDIDSIKEPADIAKLPFTTKQNLRESYPLKMACVEKEKIVRIQMSGGTTGQPVIIPYTRHDVEQWKEMLLRDFYLAGITSKDVIQITPAFGLWNGGFGFHFAADAIDAFVIPIGAGNTRNQVRFMVDFGTTVLCATASYPLRIAEVAEEMGYEPAELPVQKMLLGAEPWSEEMRRQIEKTFNCKAFDIPGLTEMGGVGTVGFECPSRNGLHIWEDNYIVEIVDPETGEVLEDGEEGEIVYTSLNREAMPLIRYRSGEVSAVVSREKCECGIEHMTIKRIRGRTDDMVIYKGVKFYPSDVEQILASYGVRHYRIEVGEGIRVIFEGENGLARKVIKDIKEFLGFSPRIEVVQPGSLERFEGKAKRLFRG	not soluble
MGSDKIHHHHHHMKEDSSLTPQEVADLLKITKYTVYEMVKRGELPAYRIGRKIRIEQRDVDAYIKQGKKLKYKDIDTLEASPRTQAARQDYLSTSPGLVICGQDLLLDILGRHLENHSQGCRAFRHNIGSFAGLLQLYQGESDMAGVHLWDSDSESYNIPYVRRMVPGIPTLIIHLAMRQQGFYVARSNPLGIKGWADLTIPGLRFINREPGCGTRVLLDEHLYQMKLDRRKINGYEREETSHLAVASAVARGTADLALGNEKAALQVRGIEFIPLQKERYELVIRKEDLDKAEIRAVLDILNSAAFKSELEGLGDYCLEETGRIVAEI	not soluble
MGSDKIHHHHHHMKEPTIVKKEAFQAIGISITTTNEKEASTEGKIPGLWNRYFHEQIMHHIPNQQTKETFAFYSNYESDETGTYQFTIGMPVSSLEDVPENMTTLTIPAATYAVFTTRKGPVAEVVCEAWEYIWKWSKGNKRAFTIDFELYDEKATDPNNAQLDIYIALA	not soluble
MGSDKIHHHHHHMKEWRRNILGRELVVQYGKVAKQSSGSALVRFGDTVVLATANISDKAVEGIDFVPLTVEFQERFYAAGKIPGGFIKREGKPSESAILSARLIDRPIRPLFPKKLRNEVQVIVTVLSVDPNVPPDVVGIFAASLALNVSKIPFEGIVAGIRVGYRDGQFIALPSEEDIEKGLMDITVAGTKDAVTMVEGEAKEVTEEDMVKALRFAHSVIKELVDFQEEILSEFNVEKIPVVEPTPPEGLVEAFKDLLNKEELERRILVKVKKEREVALKEYEEQLLNQIAEKLSVTDLEGIKPFVSELYEDAVKKTMRRLIVEKGIRADGRKPTEIRPISCEVGLFPRTHGSALFTRGETQSLGIVTLGAPMDVQIIDTLLEEGVKRFMLHYNFPPFCTGEVKPLRGPSRREIGHGHLAERALKNMLPPEEEFPYTIRVVSEILESNGSSSMATVCSGSLALMDAGVPIKKHVAGIAMGLILEEDAEIILTDIIGMEDHYGDMDFKVAGTRDGITAFQMDCKVSGVSDELLMKALMQAREARMYILDRMYETISAPRPHLSKYAPIIKVTKVDPEKVADVIGPGGRVIKKIIKDFDVKVEIDDETGLVKVVGSSEENVDKAIELIREIAKEIEVGEVLEGKVTRIEPYGLFIEVRPGKIGLLHQSKVGEDMRQFLKKVKVGDTIKVQVINIDDLGRLQFKRVTEGENTQHGKTHSKRN	not soluble
MGSDKIHHHHHHMKFFSAPSPATRPPMRNRLPPLNPLRAFEAAARCGTVSAAADELHVTASAVSHQIRILESTLGVALFVRSKARVKLTPEGEALLEPVGAAFDMIANATVRLDSPAAAGDLVVSTPLSLTSRWLARHIGDFLERYPGIHLKVIPSNDDRETYSPDVDVCIRYGEGNWRNRRVELLAHPALFPVVSPALMNGPDAIRKVQDLAGRTLFCEHAGSWMRWLAEANADKLPGIRILEIGNAHIGVEAAVHGQGVALGDSLSVRDDLLDGTLVRPFSAAVPSRHAYYLVTRHELADSPLVTAFTTWLRACLA	not soluble
MGSDKIHHHHHHMKGEETLKKALLNIGKESPFYYYVLLGVKLVPSKNTRNLKLSFSTTGDVMLLYNPEAIGKKPLRMVQALLIHEVMHIVLQHFRIKPKDERDRKIWDLAMDAAINQYIPELAAFGVPLDVLVKEGHTTDNDTLFVLPPEWMMFENAEMYHKWILEEMERLGRYDVEVVAEFRDNVDDHSGLFEEDVPVEMILDLTKDRTKKAFNLFGNTLPSGVRREVSLSLENPELDWKTLLRRFFGVSIKADRYTTPLRPNRRYDHLPGWRNEYLPRIAAVVDTSGSIVEKELNQFISELEKISNIAGEELWLVQVDKSVTSAMKYRSGKWKDLEIVGGGSTDLQPAIDYSERVLRSEGTVVFTDGHTDVPIARRRILFVLSRYHNEEFLKEARKMYGRDAVVVLS	not soluble
MGSDKIHHHHHHMKGKYRVGLISFSDGREYVHRELEGIVKKFEDEIAKTLEETGEVEVIRAKEIVWKPSIAKREARRLAEEGAEVTIFNYAVWAFPHFTVLASKFAPGPFLLFSNINPQYPGMVAMLSAAGALEQDGTKHYRMWGNIKDEKVLRKVMAFIRAGSTYKKLRGQRYGVFGGRSMGMYTAVPNVDLWNKIFGVDVEHIDQFEIVRRSQLIPDERARKGRLWIEEKAKAVHYDGKYLTPEKLELQIKSYHAVREIVEEMELDFVGIKGQLELTEHFVTMDVTETFLNDPYDWEGEHEPIVCATEADSDGALTMQIFKLIAKTPVLFADVRHYVEEYDVLDLCNSGNHATYFAARSFDPDENMKKVEFYPQTFYFPAGGAAVKHIAAPGKVTLGRLTREDGRYRFTVVPGEFVDFGEEKNYEIADSIQNNWPHAFLKMETPIDEFLAKYSSNHIHGVYGDYVEEIKTFCEIASIDFVLMK	not soluble
MGSDKIHHHHHHMKHEPLELGLKIEDAILVNEKLKDFVVYKSGKPRIDFKNKEAMKEYNIAILGHVFGLDMDFHEDALIPTPINRYLFIKNIFDEKDDIKDVLEIGTGSGIISILIAKYFECNVTATDTVSDYLKIAKDNISKNNLTSKINLIDSKGKIIFDIPELKNKKFDLIISYPPYYADNSVASKRSFGGAFASEVELIGGGAYGEVFSQKIIEEGMDHLNNGGIVAIMFPEKPFERRKFVEDKILELGLTLEKSEITTGKRIRHIIKAKKE	not soluble
MGSDKIHHHHHHMKHGILVAYKPKGPTSHDVVDEVRKKLKTRKVGHGGTLDPFACGVLIIGVNQGTRILEFYKDLKKVYWVKMRLGLITETFDITGEVVEERECNVTEEEIREAIFSFVGEYDQVPPAYSAKKYKGERLYKLAREGKIINLPPKRVKIFKIWDVNIEGRDVSFRVEVSPGTYIRSLCMDIGYKLGCGATAVELVRESVGPHTIEESLNVFEAAPEEIENRIIPLEKCLEWLPRVVVHQESTKMILNGSQIHLEMLKEWDGFKKGEVVRVFNEEGRLLALAEAERNSSFLETLRKHERNERVLTLRKVFNTR	not soluble
MGSDKIHHHHHHMKHTEMSLTDKKIIITRAQEQTSEARKIFRKNGAEVFDLPSLVIGPPDDWAPLDDALKKISTFDWIIFSSANGVRNVEDRMREIGLSLSKISKTIQIAAVGRKTASLLSDMDAEISFVPPSFVADSLLEYFPQNQKGLKLFIPRVQTGGRSILSDSFRLNGAEVTEVAAYESSCPKDVPQKTIEALKSGEIDIIAFTSGKTVINTVSLFNKYFGGNWFKLIEKIKLVSIGPQTTISCKKLIRKPDKEAEPHDLEGLLNACLELKFN	not soluble
MGSDKIHHHHHHMKIALIATEKLPVPSVRGGAIQIYLEAVAPLIAKKHEVTVFSIKDPNLADREKVDGVHYVHLDEDRYEEAVGAELKKSRFDLVHVCNRPSWVPKLKKQAPDAVFILSVHNEMFAYDKISQAEGEICIDSVAQIVTVSDYIGQTITSRFPSARSKTKTVYSGVDLKTYHPRWTNEGQRAREEMRSELGLHGKKIVLFVGRLSKVKGPHILLQALPDIIEEHPDVMMVFIGSKWFGDNELNNYVKHLHTLGAMQKDHVTFIQFVKPKDIPRLYTMSDVFVCSSQWQEPLARVHYEAMAAGLPIITSNRGGNPEVIEEGKNGYIIHDFENPKQYAERINDLLSSSEKRERLGKYSRREAESNFGWQRVAENLLSVYEKNR	not soluble
